Like-named read-outs stand apart in the source and are kept apart here. Ends that are not written are not given here.
What was measured:
[1] = biological target: T1, TAMRA-labeled effector peptide cs221B (5(6)-TAMRA label coupled on resin after synthesis); assay: fluorescence polarization
T1 peptide: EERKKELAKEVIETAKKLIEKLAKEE

[2] = biological target: T1, TAMRA-labeled effector peptide cs221B; assay: fluorescence polarization
[3] = biological target: T2, TAMRA-labeled effector peptide cs074B (5(6)-TAMRA label coupled on resin after synthesis); assay: fluorescence polarization
T2 peptide: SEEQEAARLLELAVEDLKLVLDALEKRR

[4] = biological target: T3, TAMRA-labeled effector peptide js007B (5(6)-TAMRA label coupled on resin after synthesis); assay: fluorescence polarization
T3 peptide: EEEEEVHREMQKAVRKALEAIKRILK

[5] = biological target: T4, TAMRA-labeled effector peptide cs201B (5(6)-TAMRA label coupled on resin after synthesis); assay: fluorescence polarization
T4 peptide: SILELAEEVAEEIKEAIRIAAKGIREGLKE

[6] = biological target: T2, TAMRA-labeled effector peptide cs074B; assay: fluorescence polarization
[7] = biological target: cs221-V111L-A114T DEER site pair 1; assay: fluorescence polarization; MTSL-labeled, site pair 1

B1: hinge cs221 (designed binder)
chain: MSGEMKEEIRRLAEELRERTKDEEVRELAREAARLAEESDDEEVKEVVKKALEAALKSKDEEVIRLLLLAAVLAAAAARSGSPEEKLEIAKKALELAMKSKDEEVIRLALLAAVLAARSDDEEVLKKVKEALEKAMESKDVEEIRERLREAVEVARAGSGSHHWGSTHHHHHH
Kd [1]: 1.5 nM

B2: swapped target hinge csw13 (designed binder)
chain: MSGNEEVKKLVEEAKKYLKEAEEYIKKAKKTGNEELLEKALKLLEKALELVKKAIELDPNNKEAIEQAVEIARALNEVAELLIEEAKKTGNEELLEKALEALEAANEALKLAIENNENDKELLAEIAVELAEVGVLLAEVLIEEAKKTGDPELLKLALEVLEAAVEALELALKLDPNNEEAVELAEEAAKLLEEVAKELKEEAKKTGDPELEKLAKEAEELAKRAKELAERQRGSGSHHWGSTHHHHHH
Kd [2]: < 1 nM

B3: hinge cs074 (designed binder)
chain: MSGDEEVQEAVERAEELREEAEELIKKARKTGDPELLRKALEALKEAVRAVKEAIKRNPDNEEAVKTAVRLARELLKVAEELKERAEKTGDPRLLLLAAEAIAWAIEAVFLAAKASENTEGALEAARAAVKLAEVAKRIAKLLQRDAKKEGDPELLKLALRALELAVRAVELAIKENPDNEEAVETAKRLAEELRKVAELLEERAKETGDPELQELAKRAKEVADRARELAKKSNPNNGSGSHHWGSTHHHHHH
Kd [3]: 1 nM

B4: hinge js007 (designed binder)
chain: MSGSEEVNERVKQLAEKAKEATDKEEVIEIVKELAELAKQSTDPNLVAEVVRALTEVAKTSTDTELIQEIVKVLLELARRLTDPQLLLEVLKSIAELLKELAEKTGNETAKLAALVAQIAAEVVEMALRAEKTHPGSEIVKLAVELVQKVAEIVLIAAQLMLDKPNSDEVRKVLKEVEKVAREALKALREAKRHPDSQKARDEIKEASQKAEEVKERIERAQEGSGSHHWGSTHHHHHH
Kd [4]: 6 nM

B5: swapped target hinge csw20 (designed binder)
chain: MSGMEEVKELVEKAEELAKEAEELIKKAKKTGNPELLKEALRKLKEAVELAKEAVELDPEHEEAIELLARLAEKLLEVAKLLIELAKKTGNPELLKEALRALKEAREALRLAAEHAPEDAKLLARLAARLAELALLIAKILIELAKKTGNPELLLKALKVLTLAVEAVEAALEADPRLKEAVRVAKELAEVLKELAKLAKELAKKTGNEELKEAAKEAEEVAKRAEELAREAEGSGSHHWGSTHHHHHH
Kd [5]: 12 nM | Kd [6]: < 1 nM | Kd [2]: 1500 nM

B6: hinge cs201 (designed binder)
chain: MSGDEEVQEAVERAEELREEAEELIKKARKTGDPELLRKALEALKEAVRAVREAIKRNPDNEEAIKTALRLARELRKVAKELIERARKTGDAELLKKALEAARVAVEAVRLAAEYNKENAEKMAELLVELAELAREVADVLIELAEKTGDPELLKKALEVLEEAVEAVRLAIEYDPDHEEAVETAKRLAEELRKVAELLEERAKETGDPELQELAKRAKEVADRARELAKKSNGSGSHHWGSTHHHHHH
Kd [5]: 17 nM | Kd [2]: 4370 nM

{5(6)‑TAMRA}-EERKKELAKEVIETAKKLIEKLAKEE [TAMRA-labeled peptide cs221B]
Kd [7]: 0.4 nM
